Entries after “also recorded” stand apart in the source; their conditions may differ. Where two headings read alike, the source gives them in different places.
Key:
[1] = target: S519(VIII)-AAV9 (enhanced AAV9), mosaic AAV9 vector with insulin-mimetic peptide S519 inserted in capsid VR-VIII (adeno-associated virus serotype 9); experiment: cell-based or functional assay
HEK293T cells = type: cell-based, human; settings: FLuc-encoding eAAV9; luciferase activity 24 hpt
[2] = Blood glucose after intramuscular injection in fasted mice; type: in vivo, mouse; settings: 0.5 U/kg intramuscular
Method: Because of the physiological role of insulin in modulating blood glucose levels, we asked whether eAAV9, with its insulin-mimetic insertion, would exert a measurable effect on the blood glucose concentration of mice. Mice were fasted as described above, and blood glucose was measured by microsampling immediately before injection of vectors to obtain a baseline value. Mice were injected in the gastrocnemius muscle with 10^9 vg of WT AAV9, eAAV9, or, as a positive control, human insulin at 0.5 U/kg, a typical therapeutic dose for a patient with diabetes mellitus type 2 (FIG. 4D). Blood glucose was then measured at 45 min, 2 h, and 4 h post injection of vectors or insulin.
Blood glucose measurement. At 4 hours before glucose measurement, mice were relocated to a cage with iso-PADS bedding (Envigo) with access to water but no food source. Mice were then anesthetized with isoflurane and their left hind limb was shaved. Blood glucose was measured with a Contour Next glucometer (Bayer) by puncturing the saphenous vein with a lancet and sampling 1 ul of venous blood by capillary action. After the first glucose measurement, mice were injected in the medial aspect of the right gastrocnemius muscle with either 10^9 vector genomes or 0.5 U/kg human insulin (Tocris). Subsequent blood glucose measurements were performed in the same way as the first. […]

[3] = target: human insulin receptor, endogenous on HEK293T / Control 293T cells (human) (UniProt P06213); experiment: cell-based or functional assay
IR [4] = target: T1, IR (Homo sapiens, UniProt P06213); settings: cited from earlier work
IR [5] = target: T1, IR; settings: cited from earlier work; remark: listed apart in the source

human IR ectodomain fused to an Fc tag (IR-Fc) (from UniProt P06213 28-956) (Fc fusion)
inhibition of eAAV9 transduction of HEK293T cells (luciferase activity 24 h after transduction), IC50 [1]: 0.6 nM

human insulin
IC50 of human insulin for inhibition of eAAV9 transduction (HEK293T cells): 5.2 µg/mL | blood glucose ([2]; 2 and 4 hours): rebound effect | blood glucose ([2]; 45 min): sharp and statistically significant decrease

human insulin (Tocris) (from UniProt P01308 90-110) (ligand)
inhibition of eAAV9 transduction of HEK293T cells by human insulin (luciferase activity), IC50 [3]: 5.2 µg/mL

insulin-mimetic peptide GSLDESFYDWFERQLGKK (SEQ ID NO:8) [S371]
activity on IR (IR [4]): activates the receptor in the absence of insulin | Kd (IR [5]; read-out: affinity of binding to IR): ~40 nM

insulin-mimetic peptide, 36 amino acid linear peptide SLEEEWAQVECEVYGRGCPSGSLDESFYDWFERQLG (SEQ ID NO:7) (SLEEEWAQVECEVYGRGCPSGSLDESFYDWFERQLG) [S519]
activity on IR (IR [4]): behaves as an agonist; also recorded: agonist activity on IR | Kd (IR [5]; human IR, read-out: Kd for IR): 0.02 nM
